3 substances from patent US7084111 can be followed below.

What all share (test): cell-based or functional assay
The target in assay [1] is mouse melanocortin-1 receptor (mouse) (UniProt Q01727).
The target of assay [2] is mouse melanocortin-3 receptor (mouse) (UniProt P33033).
For assay [3], the target named is mouse melanocortin-5 receptor (mouse) (UniProt P41149).
Assay [4] has as its target mouse melanocortin-4 receptor (mouse) (UniProt P56450).

Sequence of mouse melanocortin-5 receptor (mouse) (P41149 whole entry): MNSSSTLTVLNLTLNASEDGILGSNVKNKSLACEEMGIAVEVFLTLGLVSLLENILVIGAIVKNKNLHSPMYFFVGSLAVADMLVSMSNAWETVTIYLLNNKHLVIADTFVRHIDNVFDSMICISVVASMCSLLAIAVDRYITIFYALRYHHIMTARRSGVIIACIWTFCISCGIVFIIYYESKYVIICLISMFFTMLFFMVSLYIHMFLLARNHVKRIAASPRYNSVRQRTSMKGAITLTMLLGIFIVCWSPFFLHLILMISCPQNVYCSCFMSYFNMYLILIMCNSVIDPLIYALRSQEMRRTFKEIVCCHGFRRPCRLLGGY
Sequence of mouse melanocortin-3 receptor (mouse) (P33033 whole entry): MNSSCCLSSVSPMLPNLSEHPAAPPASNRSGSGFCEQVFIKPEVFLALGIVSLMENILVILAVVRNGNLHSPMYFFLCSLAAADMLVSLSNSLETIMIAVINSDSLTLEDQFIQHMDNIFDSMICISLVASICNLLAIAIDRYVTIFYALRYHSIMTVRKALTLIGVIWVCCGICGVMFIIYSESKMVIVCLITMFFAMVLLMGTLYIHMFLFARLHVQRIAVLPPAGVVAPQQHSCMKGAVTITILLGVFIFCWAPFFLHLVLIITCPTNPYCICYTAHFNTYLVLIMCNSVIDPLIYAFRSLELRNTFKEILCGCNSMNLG
Sequence of mouse melanocortin-1 receptor (mouse) (Q01727 whole entry): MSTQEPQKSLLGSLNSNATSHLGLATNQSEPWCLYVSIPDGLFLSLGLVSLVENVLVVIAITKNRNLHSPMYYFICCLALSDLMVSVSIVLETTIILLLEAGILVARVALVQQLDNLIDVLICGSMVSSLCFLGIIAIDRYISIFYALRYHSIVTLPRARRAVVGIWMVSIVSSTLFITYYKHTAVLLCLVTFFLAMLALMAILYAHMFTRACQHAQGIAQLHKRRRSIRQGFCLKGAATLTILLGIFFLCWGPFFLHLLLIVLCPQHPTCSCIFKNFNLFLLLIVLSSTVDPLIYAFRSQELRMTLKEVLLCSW
Sequence of mouse melanocortin-4 receptor (mouse) (P56450 whole entry): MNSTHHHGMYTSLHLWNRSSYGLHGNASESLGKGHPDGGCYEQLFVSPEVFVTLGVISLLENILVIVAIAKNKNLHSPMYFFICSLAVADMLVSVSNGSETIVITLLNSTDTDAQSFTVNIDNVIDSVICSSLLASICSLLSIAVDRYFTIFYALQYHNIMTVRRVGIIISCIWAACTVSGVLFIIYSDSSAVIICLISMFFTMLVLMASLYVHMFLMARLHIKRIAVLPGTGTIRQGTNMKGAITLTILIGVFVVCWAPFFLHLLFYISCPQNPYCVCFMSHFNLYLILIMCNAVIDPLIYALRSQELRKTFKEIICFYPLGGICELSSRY

In assay [1], MTII (peptide) had an EC50 (agonist) of 0.02 nM.

Regarding NDP-MSH (peptide), the results for the EC50 (agonist) in assay [2] and in assay [3] were 0.098 nM and 0.071 nM, respectively.

As to “hAGRP(109-118) decapeptide (from UniProt O00253 109-118)”, the EC50 (agonist) is 5120 nM in assay [1], greater than 100000 nM in assay [2] and greater than 100000 nM in assay [3]. Also, the pA2 (antagonist) in assay [4] turned out to be 6.8.
